T1: human IL1RAP (hu-IL1RAP) on human cells (human, UniProt Q9NPH3 21-570)
T1 sequence: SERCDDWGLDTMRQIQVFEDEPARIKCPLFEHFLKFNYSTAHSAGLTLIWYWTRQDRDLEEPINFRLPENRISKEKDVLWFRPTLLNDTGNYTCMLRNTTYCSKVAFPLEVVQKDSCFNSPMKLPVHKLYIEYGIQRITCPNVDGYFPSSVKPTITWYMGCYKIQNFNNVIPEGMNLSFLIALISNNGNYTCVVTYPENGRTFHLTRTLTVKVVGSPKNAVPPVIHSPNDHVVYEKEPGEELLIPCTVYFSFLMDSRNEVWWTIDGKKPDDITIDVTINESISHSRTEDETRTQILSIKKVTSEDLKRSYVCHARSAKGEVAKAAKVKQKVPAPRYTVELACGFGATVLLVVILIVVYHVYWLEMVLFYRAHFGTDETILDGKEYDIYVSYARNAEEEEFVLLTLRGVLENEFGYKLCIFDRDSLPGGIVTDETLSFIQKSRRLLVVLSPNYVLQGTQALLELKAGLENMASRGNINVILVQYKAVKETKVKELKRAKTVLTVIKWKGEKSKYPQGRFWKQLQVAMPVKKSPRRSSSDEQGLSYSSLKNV

T2: hu-M-IL1RAP construct, positions S21-T367 (extracellular domain of the membrane form of human IL1RAP) (human, UniProt Q9NPH3 21-367)
T2 construct: Biotinylated when captured on the Biacore chip
T2 sequence: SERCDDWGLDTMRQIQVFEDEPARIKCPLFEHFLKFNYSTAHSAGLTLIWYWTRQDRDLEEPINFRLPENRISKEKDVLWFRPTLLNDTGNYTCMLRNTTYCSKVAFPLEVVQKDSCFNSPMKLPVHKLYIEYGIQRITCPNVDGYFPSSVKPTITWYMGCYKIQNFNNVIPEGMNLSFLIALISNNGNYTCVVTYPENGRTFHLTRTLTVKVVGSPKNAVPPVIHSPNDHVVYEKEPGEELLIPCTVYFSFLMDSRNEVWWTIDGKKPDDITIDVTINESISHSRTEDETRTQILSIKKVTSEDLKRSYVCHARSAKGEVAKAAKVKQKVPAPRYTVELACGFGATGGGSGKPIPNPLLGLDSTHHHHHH


Target: T1, human IL1RAP (hu-IL1RAP) on human cells
Test: cell-based or functional assay

Binder	HEK-Blue, IL-1β, % inhibition at 100 nM (IgG)	HEK-Blue, IL-1β, IC50 (IgG)	HEK-Blue, IL-33, % inhibition at 100 nM (IgG)	HEK-Blue, IL-33, IC50 (IgG)	HEK-Blue, IL-36α, % inhibition at 100 nM (IgG)	HEK-Blue, IL-36α, IC50 (IgG)
K17 IgG (VL-A51Y/W92K) (antibody, V domains shown) VH: EVQLVESGGGLVQPGGSLRLSCAASGFTFSNYAMSWVRQAPGKGLEWVATVTEGGDYNYYLDDVKGRFTISRDNAKNSLYLQMNSLRAEDTAVYYCARDRWPYFFDYWGQGTLVTVSS VL: DIQMTQSPSSLSASVGDRVTITCRASENIYSNLAWYQQKPGKSPKLLVYGYKNLADGVPSRFSGSGSGTDYTLTISSLQPEDFATYYCQHFKTTPRTFGGGTKVEIK	100%	468 pM	99%	2740 pM	100%	495 pM
K13 IgG (VL-A51Y/W92I) (antibody, V domains shown) VH: EVQLVESGGGLVQPGGSLRLSCAASGFTFSNYAMSWVRQAPGKGLEWVATVTEGGDYNYYLDDVKGRFTISRDNAKNSLYLQMNSLRAEDTAVYYCARDRWPYFFDYWGQGTLVTVSS VL: DIQMTQSPSSLSASVGDRVTITCRASENIYSNLAWYQQKPGKSPKLLVYGYKNLADGVPSRFSGSGSGTDYTLTISSLQPEDFATYYCQHFITTPRTFGGGTKVEIK	100%	332 pM	100%	1770 pM	100%	303 pM
K10/H2 IgG (VL-A51Y, VH-R96D) (antibody, V domains shown) VH: EVQLVESGGGLVQPGGSLRLSCAASGFTFSNYAMSWVRQAPGKGLEWVATVTEGGDYNYYLDDVKGRFTISRDNAKNSLYLQMNSLRAEDTAVYYCARDDWPYFFDYWGQGTLVTVSS VL: DIQMTQSPSSLSASVGDRVTITCRASENIYSNLAWYQQKPGKSPKLLVYGYKNLADGVPSRFSGSGSGTDYTLTISSLQPEDFATYYCQHFWTTPRTFGGGTKVEIK	100%	285 pM	100%	1060 pM	100%	340 pM
Parent IgG Ab (full-length IgG of h11C5_C59Y/A43S) (antibody, V domains shown) VH: EVQLVESGGGLVQPGGSLRLSCAASGFTFSNYAMSWVRQAPGKGLEWVATVTEGGDYNYYLDDVKGRFTISRDNAKNSLYLQMNSLRAEDTAVYYCARDRWPYFFDYWGQGTLVTVSS VL: DIQMTQSPSSLSASVGDRVTITCRASENIYSNLAWYQQKPGKSPKLLVYGAKNLADGVPSRFSGSGSGTDYTLTISSLQPEDFATYYCQHFWTTPRTFGGGTKVEIK	99%	363 pM	99%	2040 pM	89%	340 pM
K10 IgG (VL-A51Y) (antibody, V domains shown) VH: EVQLVESGGGLVQPGGSLRLSCAASGFTFSNYAMSWVRQAPGKGLEWVATVTEGGDYNYYLDDVKGRFTISRDNAKNSLYLQMNSLRAEDTAVYYCARDRWPYFFDYWGQGTLVTVSS VL: DIQMTQSPSSLSASVGDRVTITCRASENIYSNLAWYQQKPGKSPKLLVYGYKNLADGVPSRFSGSGSGTDYTLTISSLQPEDFATYYCQHFWTTPRTFGGGTKVEIK	100%	230 pM	100%	1370 pM	100%	247 pM
K10/H3 IgG (VL-A51Y, VH-V51S) (antibody, V domains shown) VH: EVQLVESGGGLVQPGGSLRLSCAASGFTFSNYAMSWVRQAPGKGLEWVATSTEGGDYNYYLDDVKGRFTISRDNAKNSLYLQMNSLRAEDTAVYYCARDRWPYFFDYWGQGTLVTVSS VL: DIQMTQSPSSLSASVGDRVTITCRASENIYSNLAWYQQKPGKSPKLLVYGYKNLADGVPSRFSGSGSGTDYTLTISSLQPEDFATYYCQHFWTTPRTFGGGTKVEIK	100%	177 pM	99%	354 pM	100%	280 pM

Target: T2, hu-M-IL1RAP construct, positions …
Test: SPR, Fab analyte, 25 C
Experimental: (§1) Surface plasmon resonance (SPR) analysis was used to determine binding affinity for hu-M-IL1RAP of the purified Fabs containing the selected single, double, and triple mutations in either the VL or VH regions using a BIACORE™ 8K instrument. […] For kinetics measurements, 5 nM biotinylated hu-M-IL1RAP was captured at 10 μL/min to achieve ˜50 response units in the second flow cell (FC2). FC1 was kept as a reference. […] The sensorgrams were recorded and subjected to reference and buffer subtraction before data analysis with the BIACORE® 8K Evaluation Software (version 1.1.1.7442). Association rates (kₒₙ) and dissociation rates (koff) were calculated using a simple one-to-one Langmuir binding model. The equilibrium dissociation constant (KD) was calculated as the ratio of koff/kₒₙ.

Binder	Kd	koff	kon
H5 Fab (VH V51S/G54H) (Fab, V domains shown, Fab with 8xHis tag) VH: EVQLVESGGGLVQPGGSLRLSCAASGFTFSNYAMSWVRQAPGKGLEWVATSTEGHDYNYYLDDVKGRFTISRDNAKNSLYLQMNSLRAEDTAVYYCARDRWPYFFDYWGQGTLVTVSS VL: DIQMTQSPSSLSASVGDRVTITCRASENIYSNLAWYQQKPGKSPKLLVYGAKNLADGVPSRFSGSGSGTDYTLTISSLQPEDFATYYCQHFWTTPRTFGGGTKVEIK	50 pM	0.000235 s⁻¹	4.71e+06 M⁻¹ s⁻¹
K18 Fab (VL A51Y/L33G) (Fab, V domains shown, Fab with 8xHis tag) VH: EVQLVESGGGLVQPGGSLRLSCAASGFTFSNYAMSWVRQAPGKGLEWVATVTEGGDYNYYLDDVKGRFTISRDNAKNSLYLQMNSLRAEDTAVYYCARDRWPYFFDYWGQGTLVTVSS VL: DIQMTQSPSSLSASVGDRVTITCRASENIYSNGAWYQQKPGKSPKLLVYGYKNLADGVPSRFSGSGSGTDYTLTISSLQPEDFATYYCQHFWTTPRTFGGGTKVEIK	18.9 pM	0.000123 s⁻¹	6.52e+06 M⁻¹ s⁻¹
K5 Fab (VL Y30W/W92L) (Fab, V domains shown, Fab with 8xHis tag) VH: EVQLVESGGGLVQPGGSLRLSCAASGFTFSNYAMSWVRQAPGKGLEWVATVTEGGDYNYYLDDVKGRFTISRDNAKNSLYLQMNSLRAEDTAVYYCARDRWPYFFDYWGQGTLVTVSS VL: DIQMTQSPSSLSASVGDRVTITCRASENIWSNLAWYQQKPGKSPKLLVYGAKNLADGVPSRFSGSGSGTDYTLTISSLQPEDFATYYCQHFLTTPRTFGGGTKVEIK	52.4 pM	0.000268 s⁻¹	5.11e+06 M⁻¹ s⁻¹
K11 Fab (VL A51R/K52G) (Fab, V domains shown, Fab with 8xHis tag) VH: EVQLVESGGGLVQPGGSLRLSCAASGFTFSNYAMSWVRQAPGKGLEWVATVTEGGDYNYYLDDVKGRFTISRDNAKNSLYLQMNSLRAEDTAVYYCARDRWPYFFDYWGQGTLVTVSS VL: DIQMTQSPSSLSASVGDRVTITCRASENIYSNLAWYQQKPGKSPKLLVYGRGNLADGVPSRFSGSGSGTDYTLTISSLQPEDFATYYCQHFWTTPRTFGGGTKVEIK	21.2 pM	0.000102 s⁻¹	4.83e+06 M⁻¹ s⁻¹
K6 Fab (VL Y30W/W92F) (Fab, V domains shown, Fab with 8xHis tag) VH: EVQLVESGGGLVQPGGSLRLSCAASGFTFSNYAMSWVRQAPGKGLEWVATVTEGGDYNYYLDDVKGRFTISRDNAKNSLYLQMNSLRAEDTAVYYCARDRWPYFFDYWGQGTLVTVSS VL: DIQMTQSPSSLSASVGDRVTITCRASENIWSNLAWYQQKPGKSPKLLVYGAKNLADGVPSRFSGSGSGTDYTLTISSLQPEDFATYYCQHFFTTPRTFGGGTKVEIK	14.7 pM	6.25e-05 s⁻¹	4.25e+06 M⁻¹ s⁻¹

Target: T2, hu-M-IL1RAP construct, positions …
Test: SPR, Fab analyte, 37 C
Experimental: as §1

Binder	Kd	koff	kon
H9 Fab (VH G54V/R96A) (Fab, V domains shown, Fab with 8xHis tag) VH: EVQLVESGGGLVQPGGSLRLSCAASGFTFSNYAMSWVRQAPGKGLEWVATVTEGVDYNYYLDDVKGRFTISRDNAKNSLYLQMNSLRAEDTAVYYCARDAWPYFFDYWGQGTLVTVSS VL: DIQMTQSPSSLSASVGDRVTITCRASENIYSNLAWYQQKPGKSPKLLVYGAKNLADGVPSRFSGSGSGTDYTLTISSLQPEDFATYYCQHFWTTPRTFGGGTKVEIK	81.1 pM	0.000401 s⁻¹	4.94e+06 M⁻¹ s⁻¹
H10 Fab (VH F29S/D55G/R96S) (Fab, V domains shown, Fab with 8xHis tag) VH: EVQLVESGGGLVQPGGSLRLSCAASGFTSSNYAMSWVRQAPGKGLEWVATVTEGGGYNYYLDDVKGRFTISRDNAKNSLYLQMNSLRAEDTAVYYCARDSWPYFFDYWGQGTLVTVSS VL: DIQMTQSPSSLSASVGDRVTITCRASENIYSNLAWYQQKPGKSPKLLVYGAKNLADGVPSRFSGSGSGTDYTLTISSLQPEDFATYYCQHFWTTPRTFGGGTKVEIK	131 pM	0.000702 s⁻¹	5.34e+06 M⁻¹ s⁻¹
H7 Fab (VH F29E/N57G/R96A) (Fab, V domains shown, Fab with 8xHis tag) VH: EVQLVESGGGLVQPGGSLRLSCAASGFTESNYAMSWVRQAPGKGLEWVATVTEGGDYGYYLDDVKGRFTISRDNAKNSLYLQMNSLRAEDTAVYYCARDAWPYFFDYWGQGTLVTVSS VL: DIQMTQSPSSLSASVGDRVTITCRASENIYSNLAWYQQKPGKSPKLLVYGAKNLADGVPSRFSGSGSGTDYTLTISSLQPEDFATYYCQHFWTTPRTFGGGTKVEIK	99.8 pM	0.000511 s⁻¹	5.13e+06 M⁻¹ s⁻¹
H8 Fab (VH F29S/E52aV/R96A) (Fab, V domains shown, Fab with 8xHis tag) VH: EVQLVESGGGLVQPGGSLRLSCAASGFTSSNYAMSWVRQAPGKGLEWVATVTVGGDYNYYLDDVKGRFTISRDNAKNSLYLQMNSLRAEDTAVYYCARDAWPYFFDYWGQGTLVTVSS VL: DIQMTQSPSSLSASVGDRVTITCRASENIYSNLAWYQQKPGKSPKLLVYGAKNLADGVPSRFSGSGSGTDYTLTISSLQPEDFATYYCQHFWTTPRTFGGGTKVEIK	170 pM	0.000899 s⁻¹	5.27e+06 M⁻¹ s⁻¹

From patent US20260015426A1 (23ANDME, published 2026)
